From patent US20260085122A1 (BEONE MEDICINES I, published 2026) come the findings set out here.

For orientation: Kd means a measure of binding affinity in units of concentration. Low readings indicate tighter binding, high ones weaker binding. As a reminder, the koff is the first-order rate constant of dissociation. Read a high koff as a short-lived complex. In general, kon refers to the rate constant with which the complex forms. Low values mean slower complex formation, high ones faster complex formation.

In experiment [1] the target is T1, 4Ig-B7H3 (Cat: 11188-H02H) (human).
T1 construct: also called B7H3-4IG; 4Ig-B7H3 proteins
T1 sequence (Q5ZPR3 29-461): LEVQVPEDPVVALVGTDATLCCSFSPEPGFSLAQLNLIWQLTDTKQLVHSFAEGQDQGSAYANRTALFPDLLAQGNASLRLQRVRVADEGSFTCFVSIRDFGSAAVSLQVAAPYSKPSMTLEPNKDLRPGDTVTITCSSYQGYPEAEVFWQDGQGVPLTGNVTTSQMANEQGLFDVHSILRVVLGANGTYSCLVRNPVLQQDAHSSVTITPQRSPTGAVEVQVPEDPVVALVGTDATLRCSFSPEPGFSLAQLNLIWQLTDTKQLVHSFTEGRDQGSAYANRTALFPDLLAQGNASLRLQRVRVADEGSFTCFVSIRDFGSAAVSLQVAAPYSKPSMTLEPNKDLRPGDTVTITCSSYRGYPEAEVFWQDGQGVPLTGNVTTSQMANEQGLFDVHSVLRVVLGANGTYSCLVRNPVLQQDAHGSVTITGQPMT
Description: SPR (Biacore 8K, 25 C), B7H3 captured by anti-human IgG, VHH as analyte, 1:1 model. As for the experimental part: (§1) 4Ig-B7H3 (Cat: 11188-H02H) and 2Ig-B7H3 (Cat: B73-H5253) proteins were coupled onto a CM5 Biocore sensor derivatized via amine coupling with anti-human IgG antibody (Cat: 29234600). The VHH fragments were then flowed through at a rate at 40 μl/min. Association of VHH to B7H3 proteins was monitored for 120 seconds and disassociation of VHH in buffer 1×HBS (0.01 M HEPES, pH 7.4, 0.15 M NaCl, 3 mM EDTA, 0.05% v/v surfactant P20) was monitored for more than 120 seconds.
(§2) Ka and Kd were determined by fitting the real-time sensorgram to a 1:1 binding model using Biacore Insight Evaluation software. Binding disassociation equilibrium constants (KD) were calculated from kinetics rates as follows: […]

Experiment [2] concerns the target 2Ig-B7H3 (Cat: B73-H5253) (UniProt Q5ZPR3 29-245). The experiment is described as above. As for the experimental part: as §1, §2

Chain of 2Ig-B7H3 (Cat: B73-H5253) (Q5ZPR3 other isoform, or with tags, fused parts or gaps): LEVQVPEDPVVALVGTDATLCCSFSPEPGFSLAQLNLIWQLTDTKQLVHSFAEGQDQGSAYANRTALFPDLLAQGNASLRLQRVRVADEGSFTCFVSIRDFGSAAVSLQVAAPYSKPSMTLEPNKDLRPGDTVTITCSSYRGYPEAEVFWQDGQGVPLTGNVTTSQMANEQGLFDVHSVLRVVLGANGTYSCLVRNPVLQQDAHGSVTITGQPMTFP

B1: VHH1_C002 (VHH)
VHH: EVQLLESGGGLVQPGGSLRLSCAASGFTFSDYHMSWVRQAPGKGLEWVSGILNTGLSPTYAATVTGRFTISRDNSKNTLYLQMNSLRAEDTAVYYCAQGYYRATPSQANRGQGTLVTVSS
notes: Monovalent VHH fragment with C-terminal 6xHis-tag, no Fc
With B1, in experiment [1], the dissociation constant Kd was determined as 3.89 nM, the off-rate constant (koff) came to 0.0096 s⁻¹ and the kon is 2.47e+06 M⁻¹ s⁻¹. In experiment [2], this molecule had a Kd of 43.3 nM, an off-rate constant (koff) of 0.129 s⁻¹ and a kon of 2.99e+06 M⁻¹ s⁻¹.

B2: VHH1_C001 (VHH)
VHH: EVQLVESGGGLVQPGGSLRLSCAASPRTFQTYFMGWFRQAPGKELEWVSVINWSGGTSYYKDSVKGRFTISRDNSKNTLYLQMNSLRAEDTAVYYCAAKGSGTYDREGEYDYWGQGTLVTVSS
notes: as for B1
In experiment [1], B2 showed an equilibrium dissociation constant (Kd) of 7.41 nM, a koff of 0.00677 s⁻¹ and a kon of 914000 M⁻¹ s⁻¹. In experiment [2], this molecule displayed a Kd of 94.1 nM, a koff of 0.27 s⁻¹ and a kon of 2.87e+06 M⁻¹ s⁻¹.
